Laboratory results: article PMC8115288 (2021)

B1: GST-CTD (C-terminal domain of HIV-1 integrase, aa 201-288) [HIV-1 (Hx3B)] / His6-SUMO-INI1_(183-304) [not stated] (parent complex)
chain 1: VDIIATDIQTKELQKQITKIQNFRVYYRDSRNPLWKGPAKLLWKGEGAVVIQDNSDIKVVPRRKAKIIRDYGKQMAGDDCVASRQDED
chain 2: PEVLVPIRLDMEIDGQKLRDAFTWNMNEKLMTPEMFSEILCDDLDLNPLTFVPAIASAIRQQIESYPTDSILEDQSDQRVIIKLNIHVGNISLVDQFEWDMSEKENSPEKFALKLCSELGLG

Variants of: B1
Assay: Alpha assay; low salt conditions; parent: 100; read off a plot
chain 1 K44A was tested, and the percent of parent was ~15 % of WT. In the case of chain 1 W35E, the percent of parent is reported as ~2 % of WT. In the case of chain 1 W35A, the percent of parent is reported as ~17 % of WT. For chain 1 W35K, the percent of parent was ~4 % of WT. chain 1 W35F was tested, and the percent of parent was ~90 % of WT. With chain 1 K64A, chain 1 K66A the percent of parent was ~2 % of WT.
